Test results reported in patent US20240343809A1 (EXCELMAB, published 2024).

T1: human B7-H3 antigen, recombinant extracellular domain (ECD) (29-461) (human, UniProt Q5ZPR3 29-461)
T1 construct: range 29-461; Expressed in 293F cells as B7-H3-TEV-cFc-His fusion, cut with TEV protease and cleaned over a nickel column to give the human B7-H3 antigen; also called recombinant human B7-H3 antigen; hB7-H3
T1 sequence (looked up): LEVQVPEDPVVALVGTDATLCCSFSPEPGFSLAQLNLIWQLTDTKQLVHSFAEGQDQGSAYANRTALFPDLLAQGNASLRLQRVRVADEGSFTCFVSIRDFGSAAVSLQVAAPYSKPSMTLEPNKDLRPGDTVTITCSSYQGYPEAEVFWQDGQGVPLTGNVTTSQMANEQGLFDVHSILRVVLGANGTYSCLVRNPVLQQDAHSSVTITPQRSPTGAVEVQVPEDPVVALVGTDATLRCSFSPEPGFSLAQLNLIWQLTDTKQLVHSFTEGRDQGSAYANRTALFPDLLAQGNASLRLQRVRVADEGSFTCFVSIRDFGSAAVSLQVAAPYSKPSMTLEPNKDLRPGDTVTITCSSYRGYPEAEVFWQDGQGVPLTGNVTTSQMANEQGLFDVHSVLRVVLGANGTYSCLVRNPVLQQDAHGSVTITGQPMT

B1: affinity-matured B7-H3 antibody 42A1 (antibody, V domains shown)
VH: QVQLVQSGAEVKKPGSSVKVSCKASGGTGGIYLINWVRQAPGQGLEWMGGIIPLFGTANYAQKFQGRVTITADESTSTAYMELSSLRSDDTAVYYCARDQVVATSGVNFGMDVWGQGTTVTVSS
VL: DIQMTQEPSLTTSPGGTVTLTCRSSTGAVTTSNYANWVQEKPGQAPRGLIGGTNKRAPGTPARFSGSLIGGKAALTITGVQPEDEAIYFCALWYSNLWVFGGGTKLEIK
notes: Full antibody expressed in 293F cells, protein A purified; VH assembled from the framework and CDR entries
B2: affinity-matured B7-H3 antibody 49B2 (antibody, V domains shown)
VH: QVQLVQSGAEVKKPGSSVKVSCKASGGTFSNYAINWVRQAPGQGLEWMGGIIPNFHSSNYAQKFQGRVTITADESTSTAYMELSSLRSDDTAVYYCARDQVVATSGVNFGMDVWGQGTTVTVSS
VL: DIQMTQEPSLTTSPGGTVTLTCRSSTGAVTTSNYANWVQEKPGQAPRGLIGGTNKRAPGTPARFSGSLIGGKAALTITGVQPEDEAIYFCALWYSNLWVFGGGTKLEIK
notes: as for B1
B3: affinity-matured B7-H3 antibody 43G5 (antibody, V domains shown)
VH: QVQLVQSGAEVKKPGSSVKVSCKASGGTVRPALINWVRQAPGQGLEWMGGIIPLFGTANYAQKFQGRVTITADESTSTAYMELSSLRSDDTAVYYCARDQVVATSGVNFGMDVWGQGTTVTVSS
VL: DIQMTQEPSLTTSPGGTVTLTCRSSTGAVTTSNYANWVQEKPGQAPRGLIGGTNKRAPGTPARFSGSLIGGKAALTITGVQPEDEAIYFCALWYSNLWVFGGGTKLEIK
notes: as for B1
B4: affinity-matured B7-H3 antibody 48B12 (antibody, V domains shown)
VH: QVQLVQSGAEVKKPGSSVKVSCKASGGTTGRYLINWVRQAPGQGLEWMGGIIPLFGTANYAQKFQGRVTITADESTSTAYMELSSLRSDDTAVYYCARDQVVATSGVNFGMDVWGQGTTVTVSS
VL: DIQMTQEPSLTTSPGGTVTLTCRSSTGAVTTSNYANWVQEKPGQAPRGLIGGTNKRAPGTPARFSGSLIGGKAALTITGVQPEDEAIYFCALWYSNLWVFGGGTKLEIK
notes: as for B1
B5: affinity-matured B7-H3 antibody 48E9 (antibody, V domains shown)
VH: QVQLVQSGAEVKKPGSSVKVSCKASGGTGGAYLINWVRQAPGQGLEWMGGIIPLFGTANYAQKFQGRVTITADESTSTAYMELSSLRSDDTAVYYCARDQVVATSGVNFGMDVWGQGTTVTVSS
VL: DIQMTQEPSLTTSPGGTVTLTCRSSTGAVTTSNYANWVQEKPGQAPRGLIGGTNKRAPGTPARFSGSLIGGKAALTITGVQPEDEAIYFCALWYSNLWVFGGGTKLEIK
notes: as for B1
B6: affinity-matured B7-H3 antibody 49F6 (antibody, V domains shown)
VH: QVQLVQSGAEVKKPGSSVKVSCKASGGTFSNYAINWVRQAPGQGLEWMGGIIPGFDAVNYAQKFQGRVTITADESTSTAYMELSSLRSDDTAVYYCARDQVVATSGVNFGMDVWGQGTTVTVSS
VL: DIQMTQEPSLTTSPGGTVTLTCRSSTGAVTTSNYANWVQEKPGQAPRGLIGGTNKRAPGTPARFSGSLIGGKAALTITGVQPEDEAIYFCALWYSNLWVFGGGTKLEIK
notes: as for B1
B7: affinity-matured B7-H3 antibody 49C7 (antibody, V domains shown)
VH: QVQLVQSGAEVKKPGSSVKVSCKASGGTFSNYAINWVRQAPGQGLEWMGGIIPNFYSVNYAQKFQGRVTITADESTSTAYMELSSLRSDDTAVYYCARDQVVATSGVNFGMDVWGQGTTVTVSS
VL: DIQMTQEPSLTTSPGGTVTLTCRSSTGAVTTSNYANWVQEKPGQAPRGLIGGTNKRAPGTPARFSGSLIGGKAALTITGVQPEDEAIYFCALWYSNLWVFGGGTKLEIK
notes: as for B1
B8: affinity-matured B7-H3 antibody 48G2 (antibody, V domains shown)
VH: QVQLVQSGAEVKKPGSSVKVSCKASGGTSRPVLINWVRQAPGQGLEWMGGIIPLFGTANYAQKFQGRVTITADESTSTAYMELSSLRSDDTAVYYCARDQVVATSGVNFGMDVWGQGTTVTVSS
VL: DIQMTQEPSLTTSPGGTVTLTCRSSTGAVTTSNYANWVQEKPGQAPRGLIGGTNKRAPGTPARFSGSLIGGKAALTITGVQPEDEAIYFCALWYSNLWVFGGGTKLEIK
notes: as for B1
B9: affinity-matured B7-H3 antibody 48D10 (antibody, V domains shown)
VH: QVQLVQSGAEVKKPGSSVKVSCKASGGTRPAALINWVRQAPGQGLEWMGGIIPLFGTANYAQKFQGRVTITADESTSTAYMELSSLRSDDTAVYYCARDQVVATSGVNFGMDVWGQGTTVTVSS
VL: DIQMTQEPSLTTSPGGTVTLTCRSSTGAVTTSNYANWVQEKPGQAPRGLIGGTNKRAPGTPARFSGSLIGGKAALTITGVQPEDEAIYFCALWYSNLWVFGGGTKLEIK
notes: as for B1
B10: affinity-matured B7-H3 antibody 50A1 (antibody, V domains shown)
VH: QVQLVQSGAEVKKPGSSVKVSCKASGGTFSNYAINWVRQAPGQGLEWMGGIIPLFGTANYAQKFQGRVTITADESTSTAYMELSSLRSDDTAVYYCARDQVVPLSGVNFGMDVWGQGTTVTVSS
VL: DIQMTQEPSLTTSPGGTVTLTCRSSTGAVTTSNYANWVQEKPGQAPRGLIGGTNKRAPGTPARFSGSLIGGKAALTITGVQPEDEAIYFCALWYSNLWVFGGGTKLEIK
notes: as for B1
B11: affinity-matured B7-H3 antibody 49C3 (antibody, V domains shown)
VH: QVQLVQSGAEVKKPGSSVKVSCKASGGTFSNYAINWVRQAPGQGLEWMGGIIPNFESVNYAQKFQGRVTITADESTSTAYMELSSLRSDDTAVYYCARDQVVATSGVNFGMDVWGQGTTVTVSS
VL: DIQMTQEPSLTTSPGGTVTLTCRSSTGAVTTSNYANWVQEKPGQAPRGLIGGTNKRAPGTPARFSGSLIGGKAALTITGVQPEDEAIYFCALWYSNLWVFGGGTKLEIK
notes: as for B1
B12: affinity-matured B7-H3 antibody 49D12 (antibody, V domains shown)
VH: QVQLVQSGAEVKKPGSSVKVSCKASGGTFSNYAINWVRQAPGQGLEWMGGIIPRFASRNYAQKFQGRVTITADESTSTAYMELSSLRSDDTAVYYCARDQVVATSGVNFGMDVWGQGTTVTVSS
VL: DIQMTQEPSLTTSPGGTVTLTCRSSTGAVTTSNYANWVQEKPGQAPRGLIGGTNKRAPGTPARFSGSLIGGKAALTITGVQPEDEAIYFCALWYSNLWVFGGGTKLEIK
notes: as for B1
B13: affinity-matured B7-H3 antibody 47C8 (antibody, V domains shown)
VH: QVQLVQSGAEVKKPGSSVKVSCKASGGTFSNYAINWVRQAPGQGLEWMGGIIPLFGTANYAQKFQGRVTITADESTSTAYMELSSLRSDDTAVYYCARDIEVMASGVNFGMDVWGQGTTVTVSS
VL: DIQMTQEPSLTTSPGGTVTLTCRSSTGAVTTSNYANWVQEKPGQAPRGLIGGTNKRAPGTPARFSGSLIGGKAALTITGVQPEDEAIYFCALWYSNLWVFGGGTKLEIK
notes: as for B1
B14: affinity-matured B7-H3 antibody 49C8 (antibody, V domains shown)
VH: QVQLVQSGAEVKKPGSSVKVSCKASGGTFSNYAINWVRQAPGQGLEWMGGIIPKFRSQNYAQKFQGRVTITADESTSTAYMELSSLRSDDTAVYYCARDQVVATSGVNFGMDVWGQGTTVTVSS
VL: DIQMTQEPSLTTSPGGTVTLTCRSSTGAVTTSNYANWVQEKPGQAPRGLIGGTNKRAPGTPARFSGSLIGGKAALTITGVQPEDEAIYFCALWYSNLWVFGGGTKLEIK
notes: as for B1
B15: affinity-matured B7-H3 antibody 49E1 (antibody, V domains shown)
VH: QVQLVQSGAEVKKPGSSVKVSCKASGGTFSNYAINWVRQAPGQGLEWMGGIIPVFRSVNYAQKFQGRVTITADESTSTAYMELSSLRSDDTAVYYCARDQVVATSGVNFGMDVWGQGTTVTVSS
VL: DIQMTQEPSLTTSPGGTVTLTCRSSTGAVTTSNYANWVQEKPGQAPRGLIGGTNKRAPGTPARFSGSLIGGKAALTITGVQPEDEAIYFCALWYSNLWVFGGGTKLEIK
notes: as for B1
B16: affinity-matured B7-H3 antibody 50A4 (antibody, V domains shown)
VH: QVQLVQSGAEVKKPGSSVKVSCKASGGTFSNYAINWVRQAPGQGLEWMGGIIPLFGTANYAQKFQGRVTITADESTSTAYMELSSLRSDDTAVYYCARDEVVVGSGVNFGMDVWGQGTTVTVSS
VL: DIQMTQEPSLTTSPGGTVTLTCRSSTGAVTTSNYANWVQEKPGQAPRGLIGGTNKRAPGTPARFSGSLIGGKAALTITGVQPEDEAIYFCALWYSNLWVFGGGTKLEIK
notes: as for B1
B17: affinity-matured B7-H3 antibody 48A6 (antibody, V domains shown)
VH: QVQLVQSGAEVKKPGSSVKVSCKASGGTRPPALINWVRQAPGQGLEWMGGIIPLFGTANYAQKFQGRVTITADESTSTAYMELSSLRSDDTAVYYCARDQVVATSGVNFGMDVWGQGTTVTVSS
VL: DIQMTQEPSLTTSPGGTVTLTCRSSTGAVTTSNYANWVQEKPGQAPRGLIGGTNKRAPGTPARFSGSLIGGKAALTITGVQPEDEAIYFCALWYSNLWVFGGGTKLEIK
notes: as for B1
B18: affinity-matured B7-H3 antibody 49H5 (antibody, V domains shown)
VH: QVQLVQSGAEVKKPGSSVKVSCKASGGTFSNYAINWVRQAPGQGLEWMGGIIPDFNSANYAQKFQGRVTITADESTSTAYMELSSLRSDDTAVYYCARDQVVATSGVNFGMDVWGQGTTVTVSS
VL: DIQMTQEPSLTTSPGGTVTLTCRSSTGAVTTSNYANWVQEKPGQAPRGLIGGTNKRAPGTPARFSGSLIGGKAALTITGVQPEDEAIYFCALWYSNLWVFGGGTKLEIK
notes: as for B1

These binders were tested against T1, human B7-H3 antigen, recombinant … (assay: ELISA, coated human B7-H3 antigen).
Method: The binding activity of the 5D9 to B7-H3 antigen was analyzed by ELISA. Human B7-H3 antigens were coated on the 96-well plate and placed at 4° C. overnight. The antibody 5D9 and controls were diluted to 10 μg/mL, followed by 4-fold dilution gradients to generate a total of 8 different concentrations. The diluted samples and the wells coated antigen were incubated for 1h. After washing, HRP (horseradish peroxidase)-labeled goat anti-human IgG (H+L) secondary antibody was added to the plate and incubated for 1h. TMB (3,3′,5,5′-tetramethylbenzidine) solution was then added to each well after washing for chromogenesis. The absorbance was measured at OD₄₅₀ₙₘ with a microplate reader. Taking the logarithmic value of the sample concentration as the X-axis, and the absorbance OD₄₅₀ₙₘ value as the Y-axis, a dose-response curve was drawn to calculate the EC₅₀. The EC₅₀ represents the binding activity of the antibody to B7-H3 antigen. A negative control IgG group and a positive antibody Enoblituzumab control group were meanwhile set in the experiment.
ELISA was used to analyze the binding activity of affinity-matured variants to human B7-H3 antigen. By taking the logarithmic value of the sample concentration as the X-axis, and the absorbance OD₄₅₀ₙₘ value as the Y-axis, a dose-response curve was drawn to calculate the EC₅₀. The EC₅₀ represents the binding activity of the affinity-matured variants to B7-H3 antigen. A positive control Enoblituzumab and a negative control hIgG were set in the experiment.

Question: B1 was tested. Which EC50 did it give?
Answer: 0.0354 µg/mL

Question: B2 was tested. Which EC50 did it give?
Answer: 0.0286 µg/mL

Question: For B3, which EC50 is on record?
Answer: 0.0279 µg/mL

Question: For B4, which EC50 is on record?
Answer: 0.0259 µg/mL

Question: With B5 as the binder, how does the EC50 read?
Answer: 0.0438 µg/mL

Question: Which EC50 does the source give for B6 here?
Answer: 0.0309 µg/mL

Question: For B7, which EC50 is on record?
Answer: 0.033 µg/mL

Question: With B8 as the binder, how does the EC50 read?
Answer: 0.0303 µg/mL

Question: Which EC50 does the source give for B9 here?
Answer: 0.0251 µg/mL

Question: B10 was tested. Which EC50 did it give?
Answer: 0.0321 µg/mL

Question: How did the EC50 turn out when B11 was run?
Answer: 0.0245 µg/mL

Question: With B12 as the binder, how does the EC50 read?
Answer: 0.0219 µg/mL

Question: For B13, which EC50 is on record?
Answer: 0.0426 µg/mL

Question: B14 was tested. Which EC50 did it give?
Answer: 0.0285 µg/mL

Question: For B15, which EC50 is on record?
Answer: 0.0261 µg/mL

Question: How did the EC50 turn out when B16 was run?
Answer: 0.0274 µg/mL

Question: With B17 as the binder, how does the EC50 read?
Answer: 0.0272 µg/mL

Question: With B18 as the binder, how does the EC50 read?
Answer: 0.0336 µg/mL
